In patent US20260078171A1 one finds Kd data, which are given here for one molecule.

A word on the Kd: it is a measure of binding affinity in units of concentration.

Experiment in all cases: BLI (Octet), Fab, monovalent
Experiment [1] deals with SARS-CoV-2 Beta RBD (SARS-CoV-2).
Experiment [2] addresses SARS-CoV-2 Omicron BA.1 spike S1 subunit (SARS-CoV-2).
The target in experiment [3] is SARS-CoV-2 Omicron BA.2 RBD (SARS-CoV-2).

B1: VYD222 Fab (Fab, V domains shown)
VH: EVQLVESGGGLVKPGGSLRLSCAASGFTFGSYEMNWVRQAPGKGLEWVSSISEDGYSTYYPDSLKGRFTISRDSAKNSLYLQMNSLRADDTAVYYCARDFGGDTAWAGTGFTYWGQGTLVTVSS
VL: QSVLTQPPSVSGAPGQRITISCTGSSSNIGAGYDVHWYQQLPGTAPKLLIYGSSSRNYGVPDRFSGSKSGTSASLAITGLQAEDEADYYCQSYDSDLGVLYTFGTGTKVTVL
In the case of B1, the Kd was 0.00174 µM in experiment [1], 0.0181 µM in experiment [2] and 0.0135 µM in experiment [3].
